Results reported in patent US20110165161A1, “ANTI-EPCAM ANTIBODIES THAT INDUCE APOPTOSIS OF CANCER CELLS AND METHODS USING SAME” (priority 2009, published 2011).

B1: 1G10: murine anti-human EpCAM monoclonal antibody (IgG1, K), hybridoma m290-1G10; VH SEQ ID NO:7, VL SEQ ID NO:9 (antibody, listed as Mus musculus, V domains shown)
VH: QIQLVQSGPELKKPGETVKISCKASGYTFTNYGMNWVKQAPGKGFKWMGWINTYTGEPTYADDFKGRFAFSLETSASTAYLQINNLQNEDMATYFCARWGYDFDYWGQGTTLTVSS
VL: QIVLTQSPAIMSSSPGEKVTMTCSASSSISYMNWYQQKPGTSPKRWIYDTSKLASGVPARFSGSGSGTSYSLTISSMEAEDAATYYCHQRSSYPYTFGGGTKLEIKR
B2: 1F10: murine anti-human EpCAM monoclonal antibody (IgG1, λ1), hybridoma m338-1F10.3; VH SEQ ID NO:11, VL SEQ ID NO:13 (antibody, listed as Mus musculus, V domains shown)
VH: EVKLLESGGGLVQPGGSLKLSCAASGFDFSRYWMSWVRQAPGKGLEWIGEINPDSSTMNYTPSLKDKFIISRDNAKNTLYLQMSKVRSEDTALYYCARGAYAMDYWGQGTSVTVSS
VL: QAVVTQESALTTSPGETVTLTCRSSTGAVTTSNNANWVQEKPDHLFTGLIGATNNRAPGVPARFSGSLIGDKAALTITGAQTEDEAIYFCALWYINHWVFGGGTKLTVLG

Assays:
Format in all cases: cell-based
Conditions in all cases: for Induction of cell death (in words): 1, 3 and 10 μg/ml, overnight; for Cytotoxic effect (Annexin V + PI staining, dead cells): 17-20 hr
[1] = system: Breast cancer T-47D cells; assay: Antibody cytotoxicity assay (Annexin V + PI), T-47D
Protocol: (§1) After a 17-20 hr incubation at 37° C., cells were stained with 0.3 μl of FITC-conjugated Annexin V (Strong Biotech Corp. Cat. No. AVK250) in 50 μl Annexin V binding buffer (Strong Biotech Corp. Cat. No. AVK250) at RT for 20 min. After wash, the cells were then stained with 0.3 μl of propidium iodide in 200 μl Annexin V binding buffer. Annexin V and Propidium Iodide were used as a joint indicator for cell death. The data were acquired with BD FACSCalibur based on an acquisition of 3,000-5,000 cells and analyzed with the Cell Quest software. The combined percentages of the Annexin V+/PI+, Annexin V+/PI− and Annexin V−/PI+populations were considered as dead cells.

[2] = system: Colorectal cancer DLD-1 cells; assay: Antibody cytotoxicity assay (Annexin V + PI), DLD-1
Protocol: as §1

[3] = system: Prostate cancer LNCaP cells; assay: Antibody cytotoxicity assay (Annexin V + PI), LNCaP
Protocol: as §1

[4] = system: Pharynx cancer FaDu cells; assay: Antibody cytotoxicity assay (Annexin V + PI), FaDu
Protocol: as §1

[5] = system: Ovarian cancer NIH:OVCAR-3 cells; assay: Antibody cytotoxicity assay (Annexin V + PI), NIH:OVCAR-3
Protocol: as §1

Molecule | Induction of cell death (in words) [1] | Cytotoxic effect (Annexin V + PI staining, dead cells) ([1]; mAb 1.0 μg/ml) [%] | Cytotoxic effect (Annexin V + PI staining, dead cells) ([1]; mAb 3.0 μg/ml) [%] | Cytotoxic effect (Annexin V + PI staining, dead cells) ([1]; mAb 10 μg/ml) [%] | Induction of cell death (in words) [2] | Cytotoxic effect (Annexin V + PI staining, dead cells) ([2]; mAb 1.0 μg/ml) [%] | Cytotoxic effect (Annexin V + PI staining, dead cells) ([2]; mAb 3.0 μg/ml) [%] | Cytotoxic effect (Annexin V + PI staining, dead cells) ([2]; mAb 10 μg/ml) [%] | Induction of cell death (in words) [3] | Cytotoxic effect (Annexin V + PI staining, dead cells) ([3]; mAb 1.0 μg/ml) [%] | Cytotoxic effect (Annexin V + PI staining, dead cells) ([3]; mAb 3.0 μg/ml) [%] | Cytotoxic effect (Annexin V + PI staining, dead cells) ([3]; mAb 10 μg/ml) [%] | Induction of cell death (in words) [4] | Cytotoxic effect (Annexin V + PI staining, dead cells) ([4]; mAb 1.0 μg/ml) [%] | Cytotoxic effect (Annexin V + PI staining, dead cells) ([4]; mAb 3.0 μg/ml) [%] | Cytotoxic effect (Annexin V + PI staining, dead cells) ([4]; mAb 10 μg/ml) [%] | Induction of cell death (in words) [5] | Cytotoxic effect (Annexin V + PI staining, dead cells) ([5]; mAb 1.0 μg/ml) [%] | Cytotoxic effect (Annexin V + PI staining, dead cells) ([5]; mAb 3.0 μg/ml) [%] | Cytotoxic effect (Annexin V + PI staining, dead cells) ([5]; mAb 10 μg/ml) [%]
B1 | substantial cell death | 45 | 58 | 64 | substantial cell death | 28 | 40 | 60 | substantial cell death | 42 | 55 | 45 | substantial cell death | 40 | 50 | 51 | substantial cell death | 40 | 50 | 52
B2 | substantial cell death | 51 | 50 | 50 | substantial cell death | 65 | 65 | 61 | substantial cell death | 47 | 53 | 48 | substantial cell death | 44 | 42 | 45 | substantial cell death | 53 | 57 | 59
